Test results: US20140179896A1 (published 2014)
Numbering of substitutions follows the chain as printed. In names and notes the source's numbering stands.

Columns and labels:
[1] = biological target: T1, human vascular endothelial growth factor receptor-2 Fc chimera (KDR-Fc) (human, UniProt P35968 20-764); experiment: BIAcore, target-Fc immobilized
T1 construct: range 1-764; purchased from R&D Systems; also called hKDR; human VEGF-R2-Fc; not shown: human IgG1 Fc
Experimental: (§1) The binding kinetics of fibronectin-based scaffold proteins binding proteins to the target was measured using BIAcore 2000 biosensor (Pharmacia Biosensor). Human and mouse VEGF-R2-Fc fusions were immobilized onto a CM5 sensor chip and soluble binding proteins were injected at concentrations ranging from 0 to 100 nM in buffer 0 (10 mM HEPES, 150 mM NaCl, 0.005% Tween 20, pH 7.4). Sensorgrams were obtained at each concentration and were evaluated using a program, BIA Evaluation 2.0 (BIAcore), to determine the rate constants kₐ (kₒₙ) and kd (koff.) The affinity constant, KD was calculated from the ratio of rate constants […].

[2] = biological target: T1, human vascular endothelial growth …; experiment: radioactive equilibrium binding
Experimental: (§2) To prepare ³⁵S-labeled binding proteins for analysis, mRNA was prepared as described above for RNA-protein fusion production but the linker ligation step was omitted. The mRNA was expressed using rabbit reticulocyte lysate translation kit (Ambion) in the presence of ³⁵S-labeled Met at 30° C. for 1 hour. Expressed protein was purified on M2-agarose Flag beads (Sigma) as described above. This procedure produced the encoded protein without the nucleic acid tail. […] of the reaction mixture and elution were dried onto a LumaPlate-96 (Packard) and the amount of ³⁵S on the plate was measured using a TopCount NXT instrument (Packard). The amount of fibronectin-based scaffold protein bound to the target was estimated as a percent of radioactivity eluted from Protein A magnetic beads compare to radioactivity in the reaction mixture. Nonspecific binding of fibronectin-based scaffold proteins to the beads was determined by measuring binding in the absence of KDR-Fc and represented less than 1-2% of the input. […] Data was analyzed using the GraphPad Prizm software (GraphPad Software, Inc, San Diego, Calif.), fitted using a one site, non-linear binding equation.

[3] = biological target: T1, human vascular endothelial growth …; experiment: radioactive equilibrium binding assay
Experimental: (§3) To prepare ³⁵S-labeled binding proteins for analysis, mRNA was prepared as described above for RNA-protein fusion production but the linker ligation step was omitted. The mRNA was expressed using rabbit reticulocyte lysate translation kit (Ambion) in the presence of ³⁵S-labeled Met at 30° C. for 1 hour. Expressed protein was purified on M2-agarose Flag beads (Sigma) as described above. This procedure produced the encoded protein without the nucleic acid tail. In a direct binding assay, VEGF-R2-Fc fusions in concentrations ranging from 0 to 200 nM were added to a constant concentration of the purified protein (0.2 or 0.5 nM) and incubated at 30° C. for 1 hour in buffer B. The receptor-binder complexes were captured using Protein A magnetic beads for another 10 minutes at room temperature using a Kingfisher™ The beads were washed with six reaction volumes of buffer B. The protein was eluted from the beads with 100 μL of 0.1 M KOH. […] of the reaction mixture and elution were dried onto a LumaPlate-96 (Packard) and the amount of ³⁵S on the plate was measured using a TopCount NXT instrument (Packard). The amount of fibronectin-based scaffold protein bound to the target was estimated as a percent of radioactivity eluted from Protein A magnetic beads compare to radioactivity in the reaction mixture. Nonspecific binding of fibronectin-based scaffold proteins to the beads was determined by measuring binding in the absence of KDR-Fc and represented less than 1-2% of the input. Specific binding was obtained through subtraction of nonspecific binding from total binding. Data was analyzed using the GraphPad Prizm software (GraphPad Software, Inc, San Diego, Calif.), fitted using a one site, non-linear binding equation.

[4] = biological target: T2, mouse vascular endothelial growth factor receptor-2 Fc chimera (Flk-1-Fc) (mouse, UniProt P35918 20-762); experiment: radioactive equilibrium binding assay
T2 construct: purchased from R&D Systems; also called mouse VEGF-R2-Fc; not shown: Fc part of the purchased chimera
Experimental: as §3
T2 sequence (P35918 20-762, stated change not applied): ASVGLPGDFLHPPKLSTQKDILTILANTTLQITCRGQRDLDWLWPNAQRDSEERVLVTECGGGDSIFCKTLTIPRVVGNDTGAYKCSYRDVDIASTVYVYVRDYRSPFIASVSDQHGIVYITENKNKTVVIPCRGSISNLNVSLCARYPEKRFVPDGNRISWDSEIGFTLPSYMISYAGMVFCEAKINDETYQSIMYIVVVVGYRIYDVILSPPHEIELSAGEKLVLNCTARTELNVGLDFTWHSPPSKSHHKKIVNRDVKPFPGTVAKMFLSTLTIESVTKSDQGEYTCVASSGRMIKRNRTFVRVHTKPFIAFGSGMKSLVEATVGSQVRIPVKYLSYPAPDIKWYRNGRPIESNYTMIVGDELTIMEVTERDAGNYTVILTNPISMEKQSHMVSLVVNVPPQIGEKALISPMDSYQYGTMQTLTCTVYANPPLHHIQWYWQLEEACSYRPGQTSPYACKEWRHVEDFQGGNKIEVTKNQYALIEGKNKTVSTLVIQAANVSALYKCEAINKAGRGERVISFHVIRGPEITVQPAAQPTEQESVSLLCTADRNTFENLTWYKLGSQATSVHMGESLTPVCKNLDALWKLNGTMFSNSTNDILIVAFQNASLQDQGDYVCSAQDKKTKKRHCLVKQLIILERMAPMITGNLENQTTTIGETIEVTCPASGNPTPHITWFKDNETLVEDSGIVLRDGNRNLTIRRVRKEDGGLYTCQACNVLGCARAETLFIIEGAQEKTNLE

[5] = biological target: T1, human vascular endothelial growth …; experiment: radioactive equilibrium binding, 1 nM KDR-Fc
How it was run: (§4)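 Tracer: ³⁵S-Met protein from reticulocyte lysate, Flag-bead purified, no nucleic acid tail. 0.2/0.5 nM binder + 0–200 nM receptor-Fc, 30° C 1 h, buffer B; Protein A bead capture 10 min RT; 0.1 M KOH elution; scintillation count.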

[6] = biological target: T1, human vascular endothelial growth …; experiment: radioactive equilibrium binding assay, KDR-Fc
Experimental: as §3

[7] = biological target: mouse vascular endothelial growth factor receptor-2 Fc chimera (Flk-1-Fc) (mouse) (UniProt P35918); experiment: assay not given
mouse vascular endothelial growth factor receptor-2 Fc chimera (Flk-1-Fc) (mouse), sequence (P35918 20-762, stated change not applied): as above

[8] = biological target: T3, mouse vascular endothelial growth factor receptor-2 Fc chimera (Flk-1-Fc) (mouse, UniProt P35918 20-762); experiment: KD against mouse Flk-1 by the BIAcore binding assay; value not given
T3 construct: Purchased from R&D Systems; also called mouse VEGF-R2; not shown: Fc part of the purchased chimera
Experimental: Following the methodologies described in the preceding Examples, additional ¹⁰Fn3-based KDR binding proteins were generated. As described for the development of the M5FL protein in Example 5, above, proteins were tested for KD against human KDR and mouse Flk-1 using the BIAcore binding assay and for IC50 in a Ba/F3 assay.
as §1
T3 sequence (P35918 20-762, stated change not applied): as above

[9] = biological target: full-length human KDR on cells (human, UniProt P35968 20-1356); experiment: cell-based or functional assay
[10] = biological target: T3, mouse vascular endothelial growth …; experiment: Kd for Flk-1 against clone 159Q(8)L
[11] = biological target: T4, human vascular endothelial growth factor receptor-2 Fc chimera (KDR-Fc) (human, UniProt P35968 20-764); experiment: radioactive equilibrium binding (assay not given)
T4 construct: range 1-764; also called human VEGFR-2; hKDR; not shown: human IgG1 Fc

[12] = biological target: T3, mouse vascular endothelial growth …; experiment: radioactive equilibrium binding assay with VEGFR-2-Fc chimeras (FIG. 4)
Experimental: as §2

[13] = biological target: T4, human vascular endothelial growth …; experiment: binding to 1 nM KDR-Fc, % of input; radioactive equilibrium binding (assay not given)
How it was run: as §4

[14] = biological target: T5, murine VEGFR-2/EpoR chimera (flk-1/EpoR fusion, pmKE2) on cells (mouse; human, UniProt P35918 20-762; P19235 251-508, limits assumed); experiment: cell-based or functional assay
T5 sequence (P35918 other isoform, or with tags, fused parts or gaps mutant limits assumed, form in doubt): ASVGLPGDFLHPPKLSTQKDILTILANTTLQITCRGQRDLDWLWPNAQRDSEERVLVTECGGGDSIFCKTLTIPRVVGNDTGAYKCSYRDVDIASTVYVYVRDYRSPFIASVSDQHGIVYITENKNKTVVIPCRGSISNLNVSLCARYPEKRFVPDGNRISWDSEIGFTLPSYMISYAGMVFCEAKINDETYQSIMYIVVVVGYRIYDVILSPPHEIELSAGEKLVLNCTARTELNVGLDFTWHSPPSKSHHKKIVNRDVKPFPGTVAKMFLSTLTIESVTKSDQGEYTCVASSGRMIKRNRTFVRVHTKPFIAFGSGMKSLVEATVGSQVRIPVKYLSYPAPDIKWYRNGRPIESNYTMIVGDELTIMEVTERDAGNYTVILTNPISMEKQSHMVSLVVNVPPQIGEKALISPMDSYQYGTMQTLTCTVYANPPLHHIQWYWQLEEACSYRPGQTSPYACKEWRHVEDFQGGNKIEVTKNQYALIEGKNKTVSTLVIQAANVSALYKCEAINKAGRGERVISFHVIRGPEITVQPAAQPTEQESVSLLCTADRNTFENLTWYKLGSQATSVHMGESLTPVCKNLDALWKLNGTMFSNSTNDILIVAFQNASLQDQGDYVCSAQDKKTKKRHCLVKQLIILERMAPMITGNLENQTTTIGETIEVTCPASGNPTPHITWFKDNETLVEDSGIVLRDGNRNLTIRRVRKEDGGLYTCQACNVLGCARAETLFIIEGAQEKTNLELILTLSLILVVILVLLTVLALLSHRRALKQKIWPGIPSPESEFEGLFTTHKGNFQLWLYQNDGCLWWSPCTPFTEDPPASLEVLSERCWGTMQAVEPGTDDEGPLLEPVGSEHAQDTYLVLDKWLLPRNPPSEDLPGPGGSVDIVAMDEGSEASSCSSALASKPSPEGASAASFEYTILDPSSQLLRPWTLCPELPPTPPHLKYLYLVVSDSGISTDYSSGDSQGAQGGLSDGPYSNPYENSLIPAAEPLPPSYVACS

[15] = biological target: human KDR/EpoR fusion (phKE8) on Ba/F3 cells (human, UniProt P35968 20-764; P19235 251-508, limits assumed); experiment: cell-based or functional assay
[16] = biological target: T6, full-length human KDR on cells (human, UniProt P35968 20-1356); experiment: cell-based or functional assay; remark: listed apart in the source
[17] = biological target: T2, mouse vascular endothelial growth …; experiment: BIAcore, target-Fc immobilized
Experimental: as §1

[18] = biological target: T6, full-length human KDR on cells; experiment: flow cytometry on CHO KDR cells
Experimental: (§5) The functionality of KDR and Flk-1 binding molecules in a cell culture model system was evaluated with E. coli produced binding molecules.
(§6) Binding of fibronectin-based scaffold protein to cell-surface KDR and Flk-1 was analyzed simultaneously on VEGF-R2-expressing and control cells by flow cytometry. CHO-pcDNA3 cells (control) were released from their dishes with trypsin-EDTA, washed in Dulbecco's PBS without calcium and magnesium (D-PBS⁻; Invitrogen), and stained for 30 minutes at 37° C. with 1.5 μM CMTMR (5-(and -6)-(((4-chloromethyl)benzoyl)amino)-tetramethylrhodamine) (Molecular Probes). The cells were washed in D-PBS⁻ and incubated for a further 30 minutes at 37° C., and then resuspended in blocking buffer (D-PBS⁻/10% fetal bovine serum) on ice. CHO-KDR or CHO-Flk cells were treated identically except that CMTMR was omitted. 75,000 of CMTMR-stained CHO-pcDNA3 cells were mixed with an equal number of unstained CHO-KDR or CHO-Flk cells in each well of a V-bottom 96-well plate. All antibodies and fibronectin-based scaffold proteins were diluted in 25 μl/well of blocking buffer, and each treatment was conducted for 1 hour at 4° C. Cell mixtures were stained with His₆-tagged (SEQ ID NO: 235) fibronectin-based scaffold proteins, washed twice with cold D-PBS⁻, and then treated with 2.5 μg/ml anti-His₆ (SEQ ID NO: 235) MAb (R&D Systems), washed, and stained with 4 μg/ml Alexa Fluor 488-conjugated anti-mouse antibody (Molecular Probes). For cells treated with an anti-KDR mouse monoclonal antibody (Accurate Chemical, Westbury, N.Y.) or an anti-flk-1 goat polyclonal antibody (R&D Systems), the anti-His₆ (SEQ ID NO: 235) step was omitted, and antibody binding was detected with the species-appropriate Alexa Fluor 488 conjugated secondary antibody (Molecular Probes). Following staining, cells were resuspended in 200 μl/well D-PBS⁻/1% FBS/1 μg/ml 7-aminoactinomycin D (7-AAD; Molecular Probes) and analyzed by flow cytometry on a FACSCalibur (Becton Dickinson, San Jose, Calif.) equipped with a […].

[19] = biological target: T5, murine VEGFR-2/EpoR chimera (flk-1/EpoR …); experiment: flow cytometry on CHO Flk-1 cells
Experimental: as §5, §6

B1: VR28 (designed binder)
chain: VSDVPRDLEVVAATPTSLLISWRHPHFPTRYYRITYGETGGNSPVQEFTVPLQPPTATISGLKPGVDYTITGYAVTVAQNDHELITPISINYRT
notes: scaffold said to be unchanged from wild type 10Fn3; Flag-tagged in vitro translated protein in the radioactive assay, His6-tagged E. coli protein in BIAcore; tags left out; also called VR28 (I69T)
Kd [1]: 13 nM
koff [1]: 0.00034 s⁻¹
kon [1]: 30000 M⁻¹ s⁻¹
Kd [2]: 11 nM
Kd [3]: 11 nM
binding result [4]: no binding (tested: 100 nM)
Binding to 1 nM KDR, % [5]: 3%
Kd [6]: 11 nM

B2: 159(Q8L) (designed binder)
chain: B1 chain with T56A, V77M, N80S, D81G, I85F
notes: clone 159 with Q8 corrected to the wild type L; His6-tagged E. coli protein in BIAcore, tag left out; also called Clone 159 (Q8L)
Kd [7]: > 3000 nM
Kd [1]: 2 nM
koff [1]: 0.0001 s⁻¹
kon [1]: 50000 M⁻¹ s⁻¹

B3: CT-01 (designed binder)
chain: EVVAATPTSLLISWRHPHFPTRYYRITYGETGGNSPVQEFTVPLQPPTATISGLKPGVDYTITVYAVTDGRNGRLLSIPISINYRT
notes: Core form of CT-01
binding result [8]: binds

B4: M5FL (designed binder)
chain: B1 chain with T56L, V77K, A78E, Q79R, D81G, H82R, I85F
notes: 10Fn3 clone with WT N-terminus; Tail and tag not included here; also called clone M5FL
HUVEC proliferation assay: decrease in proliferation [9]: ~40%
fold improvement over the original clone (159Q(8)L) [10]: 1000 fold

B5: VR28 (designed binder)
chain: B1 chain
notes: 10Fn3 clone with WT N-terminus; tag not included; also called VR28 (I69T); VR28 clone
Kd [11]: 11 nM
binding result [12]: no binding
Binding to 1 nM KDR, % [13]: 3%

B6: E26 (designed binder)
chain: B3 chain with V64G, D69V, G70E, L75E, S77M, I78T
notes: Del 1-8 10Fn3 clone; Flag-tagged in vitro translated protein in the radioactive assay, His6-tagged E. coli protein in BIAcore and cell assays; tags left out
Inhibition of VEGF-induced proliferation, Ba/F3-Flk (IC50, nM) [14]: 5.3 nM
Inhibition of VEGF-induced proliferation, Ba/F3-KDR (IC50, nM) [15]: 3.2 nM
Inhibition of VEGF-induced proliferation of HUVEC cells (IC50, nM) [16]: 14 nM
Kd [1]: 0.51 nM
koff [1]: 5.8e-05 s⁻¹
kon [1]: 110000 M⁻¹ s⁻¹
Kd [17]: 2.14 nM
koff [17]: 0.000477 s⁻¹
kon [17]: 220000 M⁻¹ s⁻¹
EC50 [18]: 2.6 nM
EC50 [19]: 1.3 nM
Kd [3]: < 1.7 nM
Kd [4]: 2 nM

B7: E18 (designed binder)
chain: B3 chain with V64G, D69V, G70E, L75E, S77N, I78T
notes: as for B6
Inhibition of VEGF-induced proliferation, Ba/F3-Flk (IC50, nM) [14]: 2.4 nM
Inhibition of VEGF-induced proliferation, Ba/F3-KDR (IC50, nM) [15]: 5.4 nM
Inhibition of VEGF-induced proliferation of HUVEC cells (IC50, nM) [16]: 12.8 nM
Kd [1]: 0.46 nM
koff [1]: 0.000121 s⁻¹
kon [1]: 260000 M⁻¹ s⁻¹
Kd [17]: 0.33 nM
koff [17]: 0.000195 s⁻¹
kon [17]: 600000 M⁻¹ s⁻¹
EC50 [18]: 4.2 nM
EC50 [19]: 0.9 nM
Kd [3]: < 1.2 nM
Kd [4]: < 0.5 nM

B8: E19 (designed binder)
chain: B3 chain with V64G, D69V, G70E, L75H, S77M, I78T
notes: as for B6
Inhibition of VEGF-induced proliferation, Ba/F3-Flk (IC50, nM) [14]: 5.8 nM
Inhibition of VEGF-induced proliferation, Ba/F3-KDR (IC50, nM) [15]: 12.3 nM
Inhibition of VEGF-induced proliferation of HUVEC cells (IC50, nM) [16]: 11.8 nM
Kd [1]: 0.06 nM
koff [1]: 1.7e-05 s⁻¹
kon [1]: 300000 M⁻¹ s⁻¹
Kd [17]: 0.34 nM
koff [17]: 0.000223 s⁻¹
kon [17]: 660000 M⁻¹ s⁻¹
EC50 [18]: 7.6 nM
EC50 [19]: 5.3 nM
Kd [3]: < 1.3 nM
Kd [4]: < 0.7 nM

B9: E29 (designed binder)
chain: B3 chain with V64G, D69V, G70E, L75V, S77M, I78T
notes: as for B6
Inhibition of VEGF-induced proliferation, Ba/F3-Flk (IC50, nM) [14]: 4.7 nM
Inhibition of VEGF-induced proliferation, Ba/F3-KDR (IC50, nM) [15]: 10 nM
Inhibition of VEGF-induced proliferation of HUVEC cells (IC50, nM) [16]: 8.4 nM
Kd [1]: 0.19 nM
koff [1]: 7e-05 s⁻¹
kon [1]: 360000 M⁻¹ s⁻¹
Kd [17]: 0.37 nM
koff [17]: 0.000288 s⁻¹
kon [17]: 790000 M⁻¹ s⁻¹
EC50 [18]: 2.3 nM
EC50 [19]: 0.6 nM
Kd [3]: < 1.5 nM
Kd [4]: < 0.9 nM
